Paper PMC10629668

Target: serpin-6, endogenous in silkworm hemolymph (Bombyx mori (endogenous in larval hemolymph))
Assay: co-IP; antibodies against serpin-1 or serpin-6; hemolymph of naive larvae or of larvae 24 h after injection of LPS, PGN or CDN; immunoblot with antibodies against serpin-1a, serpin-6 and CLIP2

“CLIP2, endogenous in silkworm hemolymph (enzyme)” gave an intensity of the complex against the CLIP2-serpin-1a complex (after PAMPs stimulation, control hemolymph subtracted) of 2 fold.
